# B1: DG3WT (dsDNA)
# DNA 1: ACGTCGGAAGGATTAACAAAAAAAAAGCCGTGGCGTT
# DNA 2: AACGCCACGGCTTTTTTTTTGTTAATCCTTCCGACGT
# B2: mDG2WT (dsDNA)
# DNA 1: GACACAAATCAACAGCTCGAGGACAAAATT
# DNA 2: AATTTTGTCCTCGAGCTGTTGATTTGTGTC
# B3: DG1WT (dsDNA)
# DNA 1: TTATGCATATAACAAAAATAATTTCAATGC
# DNA 2: GCATTGAAATTATTTTTGTTATATGCATAA
# B4: DG2WT (dsDNA)
# DNA 1: GACACAAATCAACAGTAACAAAACAAAATT
# DNA 2: AATTTTGTTTTGTTACTGTTGATTTGTGTC
# What was measured:
# MYB101 MYB domain [1] = target: T1, MYB101 MYB domain (Arabidopsis thaliana, UniProt O80883 1-133); assay: EMSA; 10 mM Tris-Cl, 50 mM KCl, 1 mM DTT, pH 7.5, room temperature 20 min; 20 fmol probe, 200 ng protein, 50 ng poly(dI-dC) in 20 ul; 6% native PAGE, 0.5x TBE; details: protein: recombinant; tags: 6xHis (pET-30a(+)); annealed complementary oligonucleotides
# T1 sequence: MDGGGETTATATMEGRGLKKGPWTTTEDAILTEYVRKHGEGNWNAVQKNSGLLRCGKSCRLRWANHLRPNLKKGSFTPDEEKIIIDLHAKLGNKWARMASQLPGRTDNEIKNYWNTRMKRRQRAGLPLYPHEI
# MYB101 MYB domain [2] = target: T1, MYB101 MYB domain; assay: competition; 500x molar excess vs labeled DG2WT; 10 mM Tris-Cl, 50 mM KCl, 1 mM DTT, pH 7.5, room temperature 20 min; 20 fmol probe, 200 ng protein, 50 ng poly(dI-dC) in 20 ul; 6% native PAGE, 0.5x TBE; details: protein: recombinant; tags: 6xHis (pET-30a(+)); annealed complementary oligonucleotides
Binder,binding result (MYB101 MYB domain [1]),binding result (MYB101 MYB domain [2])
B1,binds,–
B2,–,no binding
B3,binds,–
B4,binds,–
